Experimental data as given in patent US20210395716.

Target: β-amyloid peptide (1-42), P05067
Sequence (P05067 whole entry, looked up, tested part not stated): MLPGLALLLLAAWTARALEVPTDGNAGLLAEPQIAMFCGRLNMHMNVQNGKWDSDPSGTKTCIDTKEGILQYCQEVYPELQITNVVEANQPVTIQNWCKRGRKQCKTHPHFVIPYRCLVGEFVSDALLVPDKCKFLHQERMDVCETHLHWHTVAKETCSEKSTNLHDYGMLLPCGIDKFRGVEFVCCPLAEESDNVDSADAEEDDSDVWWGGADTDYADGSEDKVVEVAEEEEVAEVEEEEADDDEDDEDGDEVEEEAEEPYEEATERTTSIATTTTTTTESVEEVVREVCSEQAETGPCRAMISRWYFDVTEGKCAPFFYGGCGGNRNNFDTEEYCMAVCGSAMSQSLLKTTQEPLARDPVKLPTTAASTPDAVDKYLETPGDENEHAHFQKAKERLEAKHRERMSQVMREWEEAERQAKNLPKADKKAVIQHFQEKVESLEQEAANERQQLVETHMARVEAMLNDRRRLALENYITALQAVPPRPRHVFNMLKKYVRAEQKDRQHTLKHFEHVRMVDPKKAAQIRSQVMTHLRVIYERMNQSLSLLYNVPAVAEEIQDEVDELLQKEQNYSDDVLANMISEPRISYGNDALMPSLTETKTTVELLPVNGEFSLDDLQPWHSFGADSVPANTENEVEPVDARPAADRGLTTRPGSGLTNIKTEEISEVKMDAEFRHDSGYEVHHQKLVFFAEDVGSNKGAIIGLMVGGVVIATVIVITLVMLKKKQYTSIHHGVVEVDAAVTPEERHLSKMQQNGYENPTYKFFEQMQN

B1: Fab-neprilysin (humanized 3E10 Fab fused through a Gly-Ser linker to the human neprilysin ectodomain) (protein)
chain 1: EVQLQESGGGVVQPGGSLRLSCAASGFTFSNYGMHWIRQAPGKGLEWVSYISSGSSTIYYADSVKGRFTISRDNSKNTLYLQMNSLRSEDTAVYYCARRGLLLDYWGQGTLVTVSSASTKGPSVFPLAPSSKSTSGGTAALGCLVKDYFPEPVTVSWNSGALTSGVHTFPAVLQSSGLYSLSSVVTVPSSSLGTQTYICNVNHKPSNTKVDKKVEPKSCDKTHTGGSGGGSGGGSGGYDDGICKSSDCIKSAARLIQNMDATTEPCTDFFKYACGGWLKRNVIPETSSRYGNFDILRDELEVVLKDVLQEPKTEDIVAVQKAKALYRSCINESAIDSRGGEPLLKLLPDIYGWPVATENWEQKYGASWTAEKAIAQLNSKYGKKVLINLFVGTDDKNSVNHVIHIDQPRLGLPSRDYYECTGIYKEACTAYVDFMISVARLIRQEERLPIDENQLALEMNKVMELEKEIANATAKPEDRNDPMLLYNKMTLAQIQNNFSLEINGKPFSWLNFTNEIMSTVNISITNEEDVVVYAPEYLTKLKPILTKYSARDLQNLMSWRFIMDLVSSLSRTYKESRNAFRKALYGTTSETATWRRCANYVNGNMENAVGRLYVEAAFAGESKHVVEDLIAQIREVFIQTLDDLTWMDAETKKRAEEKALAIKERIGYPDDIVSNDNKLNNEYLELNYKEDEYFENIIQNLKFSQSKQLKKLREKVDKDEWISGAAVVNAFYSSGRNQIVFPAGILQPPFFSAQQSNSLNYGGIGMVIGHEITHGFDDNGRNFNKDGDLVDWWTQQSASNFKEQSQCMVYQYGNFSWDLAGGQHLNGINTLGENIADNGGLGQAYRAYQNYIKKNGEEKLLPGLDLNHKQLFFLNFAQVWCGTYRPEYAVNSIKTDVHSPGNFRIIGTLQNSAEFSEAFHCRKNSYMNPEKKCRVW
chain 2: DIQMTQSPSSLSASVGDRVTISCRASKSVSTSSYSYMHWYQQKPEKAPKLLIKYASYLQSGVPSRFSGSGSGTDFTLTISSLQPEDVATYYCQHSREFPWTFGAGTKLELKRTVAAPSVFIFPPSDEQLKSGTASVVCLLNNFYPREAKVQWKVDNALQSGNSQESVTEQDSKDSTYSLSSTLTLSKADYEKHKVYACEVTHQGLSSPVTKSFNRGEC
B1 gave an Abeta HPLC, per hr. (sample FabNEP 2.5) of 0.5 per hr, an Abeta HPLC, per hr. (sample FabNEP 3.6, pH 3.6 elution pool) of 0.61 per hr and an Abeta HPLC, per hr. (sample FabNEP 4.0, pH 4.0 elution pool) of 0.66 per hr. It also gave an Abeta HPLC, rate (sample FabNEP 2.5) (million sq unt/min) of 0.0104, an Abeta HPLC, rate (sample FabNEP 3.6, pH 3.6 elution pool) (million sq unt/min) of 0.0137 and an Abeta HPLC, rate (sample FabNEP 4.0, pH 4.0 elution pool) (million sq unt/min) of 0.0175. It also gave an Abeta HPLC, units/µL (sample FabNEP 2.5) of 0.001 units/µL, an Abeta HPLC, units/µL (sample FabNEP 3.6, pH 3.6 elution pool) of 0.0547 units/µL and an Abeta HPLC, units/µL (sample FabNEP 4.0, pH 4.0 elution pool) of 0.035 units/µL. It also gave an Abeta HPLC, units/µg (sample FabNEP 2.5) of 0.008 units/µg, an Abeta HPLC, units/µg (sample FabNEP 3.6, pH 3.6 elution pool) of 0.01 units/µg and an Abeta HPLC, units/µg (sample FabNEP 4.0, pH 4.0 elution pool) of 0.011 units/µg. The “degradation of β-amyloid (1-42)” value was “The Fab portion does not inhibit degradation of β-amyloid (1-42)” and the “degradation of β-amyloid peptide (1-42), HPLC” value was “Fab-NEP degrades β-amyloid peptide (1-42). The Fab conjugate does not appear to inhibit neprilysin activity, as compared to yeast NEP (yNEP)”.
